Where no end group is shown, it is not given here.
What was measured:
Test in all cases: FP
[1] = molecular target: IMPα1 major site mutant D192K (human)
[2] = molecular target: human importin α1 lacking the importin-β binding domain (hIMPα1ΔIBB) (human)
[3] = molecular target: IMPα1 minor site mutant E396R (human)

B1: HaHV1 UL36h NLS peptide (residues 1491-1500), FITC/Ahx-labelled (peptide)
peptide: ETKKRRRILE
modifications: not fully specified (N-terminus); also: FITC/Ahx-labelled, position not given here
Q: B1 was tested. Which Kd [1] did it give?
A: The Kd was 3.55 µM.

Q: What about the Kd [2] of the same binder?
A: The Kd was 0.362 µM.

Q: What about the Kd [3] of the same binder?
A: Its Kd is 1.76 µM.
